# Reference: US20110039770A1 (PHARMAGAP, published 2011)
# T1: PKC-ε (endogenous, IMR-32 lysate) (human, UniProt Q02156 1-737)
# T1 construct: Band 1 and Band 2 (alternate splicing variants, not identified further) are kept under one molecule; the band is named in the assay field of each row; also called PKC-epsilon; PKC-ε Band 1
# T1 sequence (looked up): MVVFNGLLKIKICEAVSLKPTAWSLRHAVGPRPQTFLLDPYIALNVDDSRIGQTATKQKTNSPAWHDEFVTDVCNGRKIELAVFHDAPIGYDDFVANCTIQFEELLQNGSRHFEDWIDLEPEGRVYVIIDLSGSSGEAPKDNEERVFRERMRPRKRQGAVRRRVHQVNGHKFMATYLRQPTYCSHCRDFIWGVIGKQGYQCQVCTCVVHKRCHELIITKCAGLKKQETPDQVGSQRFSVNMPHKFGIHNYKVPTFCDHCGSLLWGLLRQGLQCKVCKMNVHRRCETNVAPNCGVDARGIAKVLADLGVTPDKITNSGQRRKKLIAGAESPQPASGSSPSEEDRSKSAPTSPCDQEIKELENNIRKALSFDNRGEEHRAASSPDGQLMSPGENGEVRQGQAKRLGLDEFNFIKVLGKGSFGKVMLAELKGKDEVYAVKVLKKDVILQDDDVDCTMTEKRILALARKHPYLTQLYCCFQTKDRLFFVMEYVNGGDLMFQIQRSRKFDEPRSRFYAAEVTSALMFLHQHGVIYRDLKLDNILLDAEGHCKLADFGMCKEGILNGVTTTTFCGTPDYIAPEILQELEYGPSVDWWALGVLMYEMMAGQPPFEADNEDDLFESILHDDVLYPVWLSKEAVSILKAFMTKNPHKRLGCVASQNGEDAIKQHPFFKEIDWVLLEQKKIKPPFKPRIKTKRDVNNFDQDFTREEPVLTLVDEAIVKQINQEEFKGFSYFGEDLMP
# T2: PKC-ε, purified isoform (UniProt Q02156 1-737)
# T2 sequence (looked up): T1 sequence (looked up)
# Columns and labels:
# [1] = molecular target: T1, PKC-ε (endogenous, IMR-32 lysate); test: WB competition Protocol B, IMR-32 extract, vs anti-PKC-ε Ab; PKC-ε Band 2; 50 µg peptide
# Protocol: (§1) The ability of the peptides PRE 2 and PRE 3 (see Table 4) to interfere with the binding of a PKC-α-specific polyclonal antibody (Santa Cruz Biotechnology, Inc.) to PKC-α was determined using a modified version of the protocol outlined above in which the test peptide was added directly to the cell extract prior to electrophoresis at a concentration of either 5× or 15× the concentration of the protein applied to each well of the gel for the Western blots (20 μg).
# (§2) Peptides PRE 2, PRE 3 and PRE 4 (see Table 4) were tested for their ability to interfere with the binding of isoform-specific polyclonal antibodies (Santa Cruz Biotechnology, Inc.) to […] using the general protocol described in Example 3. Two bands, representing alternate splicing variants of PKC-ε, were identified on the Western blot using this anti-PKC-ε antibody.
# [2] = molecular target: T3, PKC-βI (purified isoform) (Homo sapiens (Human), UniProt P05771 2-671); test: competitive ELISA, coated purified PKC-βI, vs anti-PKC βI (SC-209); PRE 200 µM
# T3 construct: also called PKC-beta I; PKC beta 1
# T3 sequence (P05771 2-671 limits assumed): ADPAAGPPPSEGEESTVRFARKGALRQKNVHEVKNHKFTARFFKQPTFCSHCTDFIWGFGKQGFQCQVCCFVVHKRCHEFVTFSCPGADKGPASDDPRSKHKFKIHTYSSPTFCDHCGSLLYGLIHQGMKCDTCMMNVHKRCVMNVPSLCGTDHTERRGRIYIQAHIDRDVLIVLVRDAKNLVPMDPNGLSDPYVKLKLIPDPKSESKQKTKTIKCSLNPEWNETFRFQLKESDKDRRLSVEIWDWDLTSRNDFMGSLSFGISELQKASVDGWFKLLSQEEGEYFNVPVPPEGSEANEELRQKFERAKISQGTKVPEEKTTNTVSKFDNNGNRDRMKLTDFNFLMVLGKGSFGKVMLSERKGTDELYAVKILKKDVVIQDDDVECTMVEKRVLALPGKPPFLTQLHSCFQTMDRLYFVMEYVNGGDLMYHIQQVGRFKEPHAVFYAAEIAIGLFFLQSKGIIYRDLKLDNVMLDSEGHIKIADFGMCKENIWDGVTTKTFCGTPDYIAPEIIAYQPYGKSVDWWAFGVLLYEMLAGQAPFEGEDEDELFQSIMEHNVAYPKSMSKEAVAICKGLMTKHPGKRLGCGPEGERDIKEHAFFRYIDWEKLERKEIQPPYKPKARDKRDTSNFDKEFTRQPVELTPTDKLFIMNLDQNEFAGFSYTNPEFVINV
# Protocol: (§3) Greiner 96 well ELISA plates were coated with the appropriate PKC isoform diluted in PBSN (PBS with Calcium/Magnesium+0.05% Sodium azide w/w). 50 μL/well at 250 ng/mL was used. Control wells contained PBSN only. Plates were incubated overnight at 4° C.
# (§4) The plates were washed 3 times with 200 μL of dH₂O per well, then 100 μL of blocking solution was added per well and the plate incubated for 1 h at 37° C. The washing steps with dH₂O were repeated and 50 μL of the appropriate PRE solution (PRE stock solution [20 mM in DMSO] diluted in PBSN) was added and the plate incubated for 1 h at room temperature.
# (§5) 50 μL of 1:1000 dilution of Alkaline Phosphatase (AP) conjugated antibody (anti-rabbit for all except zeta, which was anti-goat) was then added and the plate incubated for 1 h at room temperature. Washing with dH₂O was then repeated. Finally, 100 μL of pNPP solution in pNPP buffer (2 mM MgCl₂, 100 mM Sodium bicarbonate in water, pH 9.8) was added to all wells and incubated for 8 minutes for α, βI, βII ε, and ζ, or for 15-20 mins for δ (until sufficient coloration is observed). The reaction was stopped by addition of Stop solution (2N NaOH) and the absorbance at 405 nm was read on a Galaxy Plate reader.
# PKC-α (purified isoform) [3] = molecular target: T4, PKC-α (purified isoform) (Homo sapiens (Human), UniProt P17252 2-672); test: competitive ELISA, coated purified PKC-α, vs anti-PKC α (SC-208); PRE 100 µM
# T4 construct: also called purified PKC-alpha; commercially purified PKC-alpha
# Protocol: as §3, §4, §5
# [4] = molecular target: T1, PKC-ε (endogenous, IMR-32 lysate); test: WB competition Protocol B, IMR-32 extract, vs anti-PKC-ε Ab; PKC-ε Band 1; 100 µg peptide
# Protocol: as §1, §2
# [5] = molecular target: T3, PKC-βI (purified isoform); test: competitive ELISA, coated purified PKC-βI, vs anti-PKC βI (SC-209); PRE 100 µM
# Protocol: as §3, §4, §5
# PKC-α (purified isoform) [6] = molecular target: T4, PKC-α (purified isoform); test: competitive ELISA, coated purified PKC-α, vs anti-PKC α (SC-208); PRE 50 µM
# Protocol: as §3, §4, §5
# PKC-α (purified isoform) [7] = molecular target: T4, PKC-α (purified isoform); test: competitive ELISA, coated purified PKC-α, vs anti-PKC α (SC-208); PRE 200 µM
# Protocol: as §3, §4, §5
# PKC-δ (purified isoform) [8] = molecular target: T5, PKC-δ (purified isoform); test: competitive ELISA, coated purified PKC-δ, vs anti-PKC δ (SC-213); PRE 200 µM
# T5 construct: also called PKC-delta
# T5 sequence (Q05655 whole entry, stated change not applied, canonical isoform): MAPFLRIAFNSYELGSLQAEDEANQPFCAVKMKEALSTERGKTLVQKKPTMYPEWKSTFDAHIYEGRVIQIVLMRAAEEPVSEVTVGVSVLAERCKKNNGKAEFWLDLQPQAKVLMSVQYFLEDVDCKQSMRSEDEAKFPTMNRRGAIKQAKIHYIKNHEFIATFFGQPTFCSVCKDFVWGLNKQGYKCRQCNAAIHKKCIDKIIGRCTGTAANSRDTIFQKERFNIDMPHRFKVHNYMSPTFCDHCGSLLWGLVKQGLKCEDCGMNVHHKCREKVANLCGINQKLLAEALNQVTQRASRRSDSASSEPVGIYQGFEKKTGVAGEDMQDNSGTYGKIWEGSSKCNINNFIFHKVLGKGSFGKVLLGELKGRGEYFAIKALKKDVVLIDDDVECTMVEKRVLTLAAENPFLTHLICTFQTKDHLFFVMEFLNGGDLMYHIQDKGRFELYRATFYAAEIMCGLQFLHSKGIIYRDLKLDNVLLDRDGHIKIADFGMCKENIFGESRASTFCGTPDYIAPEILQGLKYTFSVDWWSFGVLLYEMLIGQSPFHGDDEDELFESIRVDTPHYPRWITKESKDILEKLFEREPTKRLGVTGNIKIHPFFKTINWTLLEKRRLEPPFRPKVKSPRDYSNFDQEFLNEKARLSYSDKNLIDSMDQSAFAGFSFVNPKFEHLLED
# Protocol: as §3, §4, §5
# [9] = molecular target: T1, PKC-ε (endogenous, IMR-32 lysate); test: WB competition Protocol B, IMR-32 extract, vs anti-PKC-ε Ab; PKC-ε Band 1; 20 µg peptide
# Protocol: as §1, §2
# [10] = molecular target: T1, PKC-ε (endogenous, IMR-32 lysate); test: WB competition Protocol B, IMR-32 extract, vs anti-PKC-ε Ab; PKC-ε Band 2; 20 µg peptide
# Protocol: as §1, §2
# PKC-δ (purified isoform) [11] = molecular target: T5, PKC-δ (purified isoform); test: competitive ELISA, coated purified PKC-δ, vs anti-PKC δ (SC-213); PRE 100 µM
# Protocol: as §3, §4, §5
# [12] = molecular target: T1, PKC-ε (endogenous, IMR-32 lysate); test: WB competition Protocol B, IMR-32 extract, vs anti-PKC-ε Ab; PKC-ε Band 1; 50 µg peptide
# Protocol: as §1, §2
# PKC-δ (purified isoform) [13] = molecular target: T5, PKC-δ (purified isoform); test: competitive ELISA, coated purified PKC-δ, vs anti-PKC δ (SC-213); PRE 50 µM
# Protocol: as §3, §4, §5
# [14] = molecular target: T3, PKC-βI (purified isoform); test: competitive ELISA, coated purified PKC-βI, vs anti-PKC βI (SC-209); PRE 50 µM
# Protocol: as §3, §4, §5
# [15] = molecular target: T1, PKC-ε (endogenous, IMR-32 lysate); test: WB competition Protocol B, IMR-32 extract, vs anti-PKC-ε Ab; PKC-ε Band 2; 100 µg peptide
# Protocol: as §1, §2
# PKC-βI, purified isoform = PKC-βI, purified isoform (UniProt P05771-1 1-671); test: cell-based or functional assay
# Sequence of PKC-βI, purified isoform (P05771 whole entry, canonical isoform): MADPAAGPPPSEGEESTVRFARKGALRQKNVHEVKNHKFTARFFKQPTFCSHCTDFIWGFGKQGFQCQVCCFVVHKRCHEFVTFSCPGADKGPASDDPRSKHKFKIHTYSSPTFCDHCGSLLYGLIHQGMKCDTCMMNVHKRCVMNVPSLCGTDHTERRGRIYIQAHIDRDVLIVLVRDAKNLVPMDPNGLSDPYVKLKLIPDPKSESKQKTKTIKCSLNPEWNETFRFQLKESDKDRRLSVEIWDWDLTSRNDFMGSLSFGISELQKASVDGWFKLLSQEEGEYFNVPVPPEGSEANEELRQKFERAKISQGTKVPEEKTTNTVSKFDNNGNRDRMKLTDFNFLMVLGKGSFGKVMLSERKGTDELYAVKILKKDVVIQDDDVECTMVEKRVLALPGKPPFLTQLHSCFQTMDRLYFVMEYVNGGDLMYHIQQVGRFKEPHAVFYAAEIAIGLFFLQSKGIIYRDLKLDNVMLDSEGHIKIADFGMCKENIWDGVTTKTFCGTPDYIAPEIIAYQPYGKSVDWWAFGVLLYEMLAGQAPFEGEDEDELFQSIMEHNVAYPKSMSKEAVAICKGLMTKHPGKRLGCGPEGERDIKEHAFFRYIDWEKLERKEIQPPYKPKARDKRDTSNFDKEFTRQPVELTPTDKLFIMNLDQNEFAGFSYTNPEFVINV
# [16] = molecular target: PKC-βII, purified isoform (UniProt P05771-2 1-673); test: cell-based or functional assay
# Sequence of PKC-βII, purified isoform (P05771 other isoform, or with tags, fused parts or gaps limits assumed): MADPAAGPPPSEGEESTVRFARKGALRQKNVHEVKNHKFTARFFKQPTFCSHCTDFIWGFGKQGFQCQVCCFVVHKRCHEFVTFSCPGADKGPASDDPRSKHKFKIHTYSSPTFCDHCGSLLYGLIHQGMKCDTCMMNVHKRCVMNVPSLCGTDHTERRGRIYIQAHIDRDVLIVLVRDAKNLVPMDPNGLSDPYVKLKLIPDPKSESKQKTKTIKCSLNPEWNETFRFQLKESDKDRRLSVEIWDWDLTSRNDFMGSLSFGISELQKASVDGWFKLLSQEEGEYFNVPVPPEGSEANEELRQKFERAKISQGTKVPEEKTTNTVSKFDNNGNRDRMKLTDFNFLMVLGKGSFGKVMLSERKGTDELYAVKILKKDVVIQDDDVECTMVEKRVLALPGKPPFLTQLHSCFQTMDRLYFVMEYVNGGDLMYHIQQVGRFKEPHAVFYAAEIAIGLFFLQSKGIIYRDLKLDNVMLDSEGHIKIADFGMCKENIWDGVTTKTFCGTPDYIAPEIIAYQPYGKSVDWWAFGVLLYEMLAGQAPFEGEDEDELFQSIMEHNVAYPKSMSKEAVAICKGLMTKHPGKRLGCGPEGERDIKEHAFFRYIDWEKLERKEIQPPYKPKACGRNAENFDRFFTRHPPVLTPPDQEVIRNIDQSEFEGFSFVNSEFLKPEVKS
# PKC-ε, purified isoform = molecular target: T2, PKC-ε, purified isoform; test: cell-based or functional assay
# PKC-α, purified isoform = PKC-α, purified isoform (UniProt P17252 1-672); test: cell-based or functional assay
# [17] = molecular target: T6, PKC-βII (purified isoform) (Homo sapiens (Human), UniProt P05771 2-621); test: competitive ELISA, coated purified PKC-βII, vs anti-PKC βII (SC-210); PRE 100 µM
# T6 construct: also called PKC-beta II; PKC beta 2
# T6 sequence (P05771 other isoform, or with tags, fused parts or gaps limits assumed): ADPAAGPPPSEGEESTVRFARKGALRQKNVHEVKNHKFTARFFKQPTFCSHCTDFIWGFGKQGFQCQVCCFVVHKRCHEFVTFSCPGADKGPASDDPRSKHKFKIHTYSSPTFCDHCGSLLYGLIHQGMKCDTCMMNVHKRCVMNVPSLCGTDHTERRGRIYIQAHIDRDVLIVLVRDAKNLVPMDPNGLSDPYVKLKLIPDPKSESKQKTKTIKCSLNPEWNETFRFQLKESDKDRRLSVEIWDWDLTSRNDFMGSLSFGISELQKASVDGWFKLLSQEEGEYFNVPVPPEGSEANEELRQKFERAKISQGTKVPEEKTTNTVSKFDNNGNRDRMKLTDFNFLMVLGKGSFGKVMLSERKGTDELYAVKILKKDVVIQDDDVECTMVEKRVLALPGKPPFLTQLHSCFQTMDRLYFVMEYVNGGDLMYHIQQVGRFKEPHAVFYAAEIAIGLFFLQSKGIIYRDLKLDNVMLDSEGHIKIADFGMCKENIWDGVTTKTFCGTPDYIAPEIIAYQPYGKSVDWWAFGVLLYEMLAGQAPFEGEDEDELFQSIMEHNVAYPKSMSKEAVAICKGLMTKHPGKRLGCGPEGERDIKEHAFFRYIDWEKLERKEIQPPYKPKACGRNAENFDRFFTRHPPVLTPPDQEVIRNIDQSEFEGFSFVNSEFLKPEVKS
# Protocol: as §3, §4, §5
# [18] = molecular target: T6, PKC-βII (purified isoform); test: competitive ELISA, coated purified PKC-βII, vs anti-PKC βII (SC-210); PRE 50 µM
# Protocol: as §3, §4, §5
# [19] = molecular target: T6, PKC-βII (purified isoform); test: competitive ELISA, coated purified PKC-βII, vs anti-PKC βII (SC-210); PRE 200 µM
# Protocol: as §3, §4, §5
binder,measurement,setting,value
Ac-AKGIQEVKGGDAQNLIGISI-NH2 (also called peptide PRE 3) [PRE 3],Band Intensity,[1],0
same,Inhibition (%),[1],100%
same,Relative Intensity (%),[1],0%
same,"relative binding capacity (100-%n, DMSO subtracted)",[2],23%
same,"relative binding capacity (100-%n, DMSO subtracted)",PKC-α (purified isoform) [3],26.5%
same,Band Intensity,[4],0
same,Inhibition (%),[4],100%
same,Relative Intensity (%),[4],0%
same,"relative binding capacity (100-%n, DMSO subtracted)",[5],22.5%
same,"relative binding capacity (100-%n, DMSO subtracted)",PKC-α (purified isoform) [6],17.5%
same,"relative binding capacity (100-%n, DMSO subtracted)",PKC-α (purified isoform) [7],22.6%
same,"relative binding capacity (100-%n, DMSO subtracted)",PKC-δ (purified isoform) [8],57%
same,Band Intensity,[9],5.12
same,Inhibition (%),[9],99%
same,Relative Intensity (%),[9],0.12%
same,Band Intensity,[10],0
same,Inhibition (%),[10],100%
same,Relative Intensity (%),[10],0%
same,"relative binding capacity (100-%n, DMSO subtracted)",PKC-δ (purified isoform) [11],56%
same,Band Intensity,[12],0
same,Inhibition (%),[12],100%
same,Relative Intensity (%),[12],0%
same,"relative binding capacity (100-%n, DMSO subtracted)",PKC-δ (purified isoform) [13],48.3%
same,"relative binding capacity (100-%n, DMSO subtracted)",[14],26%
same,Band Intensity,[15],0
same,Inhibition (%),[15],100%
same,Relative Intensity (%),[15],0%
FRRCFRL [compound PKI 4],% Inhibition of PKC activity at 150 µM,"PKC-βI, purified isoform",72%
same,% Inhibition of PKC activity at 300 µM,"PKC-βI, purified isoform",72%
same,% Inhibition of PKC activity at 600 µM,"PKC-βI, purified isoform",82%
same,% Inhibition of PKC activity at 150 µM,[16],83%
same,% Inhibition of PKC activity at 300 µM,[16],83%
same,% Inhibition of PKC activity at 600 µM,[16],82%
same,% Inhibition of PKC activity at 150 µM,"PKC-ε, purified isoform",55%
same,% Inhibition of PKC activity at 300 µM,"PKC-ε, purified isoform",55%
same,% Inhibition of PKC activity at 600 µM,"PKC-ε, purified isoform",77%
same,% Inhibition of PKC activity at 150 µM,"PKC-α, purified isoform",80%
same,% Inhibition of PKC activity at 300 µM,"PKC-α, purified isoform",80%
same,% Inhibition of PKC activity at 600 µM,"PKC-α, purified isoform",80%
Ac-AKGIQEVKGGKDAQNLIGISI-NH2 (also called peptide PRE 5) [PRE 5],"relative binding capacity (100-%n, DMSO subtracted)",[17],0%
same,"relative binding capacity (100-%n, DMSO subtracted)",[2],0%
same,"relative binding capacity (100-%n, DMSO subtracted)",PKC-α (purified isoform) [3],0%
same,"relative binding capacity (100-%n, DMSO subtracted)",[18],0%
same,"relative binding capacity (100-%n, DMSO subtracted)",[5],0%
same,"relative binding capacity (100-%n, DMSO subtracted)",PKC-α (purified isoform) [6],0%
same,"relative binding capacity (100-%n, DMSO subtracted)",PKC-α (purified isoform) [7],0%
same,"relative binding capacity (100-%n, DMSO subtracted)",PKC-δ (purified isoform) [8],4.31%
same,"relative binding capacity (100-%n, DMSO subtracted)",PKC-δ (purified isoform) [11],0%
same,"relative binding capacity (100-%n, DMSO subtracted)",[19],0%
same,"relative binding capacity (100-%n, DMSO subtracted)",PKC-δ (purified isoform) [13],0.2%
same,"relative binding capacity (100-%n, DMSO subtracted)",[14],0%
